Experimental data: US20110152500A1

Experiments:
VCAM1-Trx (human) [1] = target: VCAM1-Trx (human) (UniProt P19320); experiment: SPR (Biacore), immobilisation of VCAM1 not stated
VCAM1-Trx (human) [2] = target: VCAM1-Trx (human) (UniProt P19320); experiment: SPR (Biacore), synthetic peptide

A koff (VCAM1-Trx (human) [1]) of 0.1 s⁻¹, a kon (VCAM1-Trx (human) [1]) of 330000 M⁻¹ s⁻¹ and a Kd (VCAM1-Trx (human) [2]) of 318 nM were found for QARDCTGSWTWENGKWTWKGPSICPI [Peptide 1 specific to VCAM1 (bipodal-peptide binder)] in this work.
